Source: patent US20040197306A1 (SCHERING, published 2004)

Assays:
Experiment in all cases: FACS, FLAG-tagged ligand supernatant on Baf/3 cells with chimeric receptor, anti-FLAG M2 detection
[1] = molecular target: T1, mouse IL-17RD (DCRS8) extracellular domain fused to transmembrane and intracellular domains of murine GCSFR, … (mouse, UniProt Q8JZL1 17-299; P40223 627-837, limits assumed)
T1 construct: extracellular domain;domain: transmembrane and intracellular domains; Chimeric receptor stably expressed on Baf/3 cells; also called MuIL-17RX-MuGCSFR (X = D)
T1 sequence (looked up): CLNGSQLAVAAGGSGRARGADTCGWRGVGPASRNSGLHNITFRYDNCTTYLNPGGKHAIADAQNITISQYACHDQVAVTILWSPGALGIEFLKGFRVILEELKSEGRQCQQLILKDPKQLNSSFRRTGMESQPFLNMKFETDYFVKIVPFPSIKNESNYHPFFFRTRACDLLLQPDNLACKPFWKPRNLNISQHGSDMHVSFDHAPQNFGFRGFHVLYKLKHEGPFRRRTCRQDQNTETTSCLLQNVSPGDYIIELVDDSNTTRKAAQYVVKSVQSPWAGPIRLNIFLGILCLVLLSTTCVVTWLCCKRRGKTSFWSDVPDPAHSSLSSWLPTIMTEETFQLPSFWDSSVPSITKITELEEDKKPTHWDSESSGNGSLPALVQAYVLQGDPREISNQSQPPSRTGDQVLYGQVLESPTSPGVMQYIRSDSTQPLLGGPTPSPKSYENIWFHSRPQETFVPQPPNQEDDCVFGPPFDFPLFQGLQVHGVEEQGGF
Experimental: (§1) FACS analysis was used to determine specific binding of the various ligands to the various receptors. Baf/3 or Baf/3 mouse IL17RX-mouse GCSFR cells were incubated with ligand containing cell supernatants for one hour on ice. The cells were then washed once in FACS buffer and resuspended in 10 μg/ml ANTI-FLAG® M2 antibody (Sigma, St. Louis, Mo.) for one hour on ice. Cells were washed once in FACS buffer and resuspended in 10 μl/ml anti-mouse IgG-PE (Jackson ImmunoResearch, West Grove, Pa.) for 30 minutes on ice. Cells were washed once in FACS buffer and resuspended in FACS buffer and 1 μl/ml propidium iodide (Roche Applied Science, Indianapolis, Ind.) and analyzed on a FACS Calibur (Becton Dickinson, San Jose, Calif.). The chimeric receptor cell based assay was used to visualize the binding of each of the IL-17 family ligands to the receptors by FACS.

[2] = molecular target: T2, mouse IL-17RC (DCRS7) extracellular domain fused to transmembrane and intracellular domains of murine GCSFR, … (mouse, UniProt P40223 627-837, limits assumed)
T2 construct: domain: transmembrane and intracellular domains; Chimeric receptor stably expressed on Baf/3 cells; also called MuIL-17RX-MuGCSFR (X = C)
T2 sequence: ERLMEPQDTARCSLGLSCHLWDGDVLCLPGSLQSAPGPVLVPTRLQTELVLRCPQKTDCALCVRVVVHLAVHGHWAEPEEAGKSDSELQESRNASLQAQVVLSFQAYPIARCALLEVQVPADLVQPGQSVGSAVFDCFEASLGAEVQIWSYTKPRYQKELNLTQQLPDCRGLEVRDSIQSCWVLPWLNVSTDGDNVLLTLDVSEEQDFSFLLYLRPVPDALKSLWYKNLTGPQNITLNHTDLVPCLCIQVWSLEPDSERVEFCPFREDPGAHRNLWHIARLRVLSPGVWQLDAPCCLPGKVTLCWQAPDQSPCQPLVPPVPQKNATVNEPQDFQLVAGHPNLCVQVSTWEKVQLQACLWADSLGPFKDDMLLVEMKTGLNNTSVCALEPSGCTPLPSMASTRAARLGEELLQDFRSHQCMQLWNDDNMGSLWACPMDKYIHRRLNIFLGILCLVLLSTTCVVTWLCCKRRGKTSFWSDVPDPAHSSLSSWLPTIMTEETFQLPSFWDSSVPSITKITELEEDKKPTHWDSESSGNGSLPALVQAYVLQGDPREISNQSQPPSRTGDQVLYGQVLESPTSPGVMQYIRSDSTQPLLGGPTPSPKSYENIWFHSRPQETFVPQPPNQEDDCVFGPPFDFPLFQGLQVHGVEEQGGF
Experimental: as §1

[3] = molecular target: T3, mouse IL-17RA extracellular domain fused to transmembrane and intracellular domains of murine GCSFR, on Baf/3 … (mouse, UniProt Q60943 32-322; P40223 627-837, limits assumed)
T3 construct: extracellular domain;domain: transmembrane and intracellular domains; Chimeric receptor stably expressed on Baf/3 cells; also called MuIL-17RX-MuGCSFR (X = A)
Experimental: as §1

Measured: binding result

B1: FLAG-tagged IL-17C (ligand)
chain: HHDPSLRGHPHSHGTPHCYSAEELPLGQAPPHLLARGAKWGQALPVALVSSLEAASHRGRHERPSATTQCPVLRPEEVLEADTHQRSISPWRYRVDTDEDRYPQKLAFAECLCRGCIDARTGRETAALNSVRLLQSLLVLRRRPCSRDGSGLPTPGAFAFHTEFIHVPVGCTCVLPRSV
notes: Used as supernatant of transfected 293T cells; also called IL-71; not shown: FLAG peptide tag at the N-terminus (after the pre-protrypsin leader)
no binding: [1] | [2] | [3]
